Data on four molecules can be found in patent publication US20250361322A1 (ICONIC THERAPEUTICS, published 2025).

Residue numbers refer to the chain shown, from its start.

Experiment [1] has as its target T1, human Tissue Factor (TF) (human, UniProt P13726 33-295).
T1 construct: also called hTF; CD142
In words: flow cytometry, MDA-MB-231 cells; competitor 20 nM FVII-Fc-Alexa488; antibody at 83 nM. On the technique in general: A flow cytometer gives signals particle by particle.
Description: (§1) After another 1 hr incubation on ice, cells were washed, stained with a viability dye, and analyzed by flow cytometry. The Alexa488 fluorescence data from viable cells was summarized using median fluorescence intensity.

The target in experiment [2] is T1, human Tissue Factor (TF). In words: flow cytometry, MDA-MB-231 cells; competitor 20 nM FVII-Fc-Alexa488; antibody at 250 nM.
Description: as §1
Experiment [3] has as its target T1, human Tissue Factor (TF). In words: flow cytometry, MDA-MB-231 cells; competitor 20 nM FVII-Fc-Alexa488; antibody at 28 nM.
Description: as §1
For experiment [4], the target named is T1, human Tissue Factor (TF). Kind of experiment: flow cytometry, A431 cells; antibody at 100 nM; competitor 20 nM 43Ea-Alexa488.
Description: as §1
Experiment [5] addresses T1, human Tissue Factor (TF). Kind of experiment: flow cytometry, MDA-MB-231 cells; competitor 20 nM FVII-Fc-Alexa488; antibody at 9.25 nM.
Description: as §1
The target in experiment [6] is T1, human Tissue Factor (TF). Kind of experiment: cell-based or functional assay.
The target of experiment [7] is T1, human Tissue Factor (TF). Kind of experiment: cell-based or functional assay. The source holds these as a separate data set.
For experiment [8], the target named is T1, human Tissue Factor (TF). Kind of experiment: flow cytometry, A431 cells; antibody at 100 nM; competitor 20 nM 25A-Alexa488.
Description: as §1
The target of experiment [9] is T2, rTF (rat TF) construct on HEK293 cells (rat, UniProt P42533 29-252).
T2 construct: not shown: transmembrane/cytoplasmic anchor of the cell-surface construct
T2 sequence (P42533 29-252 limits assumed): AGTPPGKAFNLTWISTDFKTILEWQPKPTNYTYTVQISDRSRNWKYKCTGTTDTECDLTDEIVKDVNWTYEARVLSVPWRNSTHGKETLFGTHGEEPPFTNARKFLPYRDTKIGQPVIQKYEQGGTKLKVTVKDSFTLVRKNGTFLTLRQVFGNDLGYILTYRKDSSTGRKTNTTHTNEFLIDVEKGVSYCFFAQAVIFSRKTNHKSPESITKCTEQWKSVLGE
Kind of experiment: flow cytometry (live cell staining), antibody titration 1:3 from 250 nM on HEK293 cells transfected with rTF.

B1: 1F (antibody, human IgG1, V domains shown)
VH: EVQLLESGGGLVQPGGSLRLSCAASGFTFSDYAMGWVRQAPGKGLEWVSTISGSGGLTYYADSVKGRFTISRDNSKNTLYLQMNSLRAEDTAVYYCAKAPYGYYMDVWGKGTTVTVSS
VL: not shown
notes: Human IgG1; also called antibody designated 1F
As to B1, in the experiment with human Tissue Factor (TF) [1], the “% FVIIa” value is 7%. Besides, the “% FVIIa” value with human Tissue Factor (TF) [2] is 6%. Moreover, in the experiment with human Tissue Factor (TF) [3], the “% FVIIa” value turned out to be 7%. Further, in the experiment with human Tissue Factor (TF) [4], the “% 43Ea binding” value amounted to 77%. Further, in the experiment with human Tissue Factor (TF) [5], the “% FVIIa” value was 7%. In the experiment with human Tissue Factor (TF) [6], the “% IL8 at 2.56 nM antibody” value is 18%, the “% IL8 at 6.4 nM antibody” value is 3%, the “% IL8 at 16 nM antibody” value was determined as 2% and the “% IL8 at 40 nM antibody” value is 2%. Besides, the “% IL8 at 100 nM antibody” value in the experiment with human Tissue Factor (TF) [6] amounted to 2%. For the same molecule, in the experiment with human Tissue Factor (TF) [7], the “% GM-CSF at 2.56 nM antibody” value worked out at 27%, the “% GM-CSF at 6.4 nM antibody” value was determined as 8%, the “% GM-CSF at 16 nM antibody” value came out at 6% and the “% GM-CSF at 40 nM antibody” value worked out at 6%. For the same molecule, in the experiment with human Tissue Factor (TF) [7], the “% GM-CSF at 100 nM antibody” value is 6%. Moreover, the “% 25A binding” value with human Tissue Factor (TF) [8] turned out to be 95%.

B2: 25A (antibody, human IgG1, V domains shown)
VH: QVQLVQSGAEVKKPGASVKVSCKASGYTFDVYGISWVRQAPGQGLEWMGWIAPYNGNTNYAQKLQGRVTMTTDTSTSTAYMELRSLRSDDTAVYYCARDAGTYSPFGYGMDVWGQGTTVTVSS
VL: DIQMTQSPSTLSASVGDRVTITCRASQSISSWLAWYQQKPGKAPKLLIYKASSLESGVPSRFSGSGSGTEFTLTISSLQPDDFATYYCQQFQSLPPFTFGGGTKVEIK
notes: Human IgG1; also called antibody designated 25A; Antibody Clone 25A
As for B2, the “% FVIIa” value in the experiment with human Tissue Factor (TF) [1] came to 97%. For the same molecule, in the experiment with human Tissue Factor (TF) [2], the “% FVIIa” value turned out to be 98%. Moreover, the “% 43Ea binding” value in the experiment with human Tissue Factor (TF) [4] came to 1%. In the experiment with human Tissue Factor (TF) [5], the “% FVIIa” value is 100%. In addition, in the experiment with human Tissue Factor (TF) [6], the “% IL8 at 2.56 nM antibody” value came to 43%, the “% IL8 at 6.4 nM antibody” value is 11%, the “% IL8 at 16 nM antibody” value was determined as 10% and the “% IL8 at 40 nM antibody” value came out at 8%. For the same molecule, the “% IL8 at 100 nM antibody” value with human Tissue Factor (TF) [6] was found to be 9%. In the experiment with human Tissue Factor (TF) [7], the “% GM-CSF at 2.56 nM antibody” value turned out to be 57%, the “% GM-CSF at 6.4 nM antibody” value amounted to 24%, the “% GM-CSF at 16 nM antibody” value was 22% and the “% GM-CSF at 40 nM antibody” value was 19%. In the experiment with human Tissue Factor (TF) [7], the “% GM-CSF at 100 nM antibody” value came to 22%. The “% 25A binding” value with human Tissue Factor (TF) [8] was determined as 3%.

B3: 25A5-T (antibody, human IgG1, V domains shown)
VH: B2 VH with V31A, N55S
VL: B2 VL with Q27E, S31N, S52Y, S56Y, S93K
notes: Human IgG1; also called antibody designated 25A5-T
Regarding B3, the binding result in [9] is listed as “no binding (tested: 250 nM)”.

B4: 39A (antibody, human IgG1, V domains shown)
VH: QVQLVQSGAEVKKPGSSVKVSCKASGGTFSSNAIGWVRQAPGQGLEWMGSIIPIIGFANYAQKFQGRVTITADESTSTAYMELSSLRSEDTAVYYCARDSGYYYGASSFGMDVWGQGTTVTVSS
VL: EIVMTQSPATLSVSPGERATLSCRASQSVSSNLAWYQQKPGQAPRLLIYGASTRATGIPARFSGSGSGTEFTLTISSLQSEDFAVYYCEQYNNLPLTFGGGTKVEIK
notes: Human IgG1; also called antibody designated 39A
As to B4, the “% FVIIa” value with human Tissue Factor (TF) [1] is 2%. The “% FVIIa” value in the experiment with human Tissue Factor (TF) [2] worked out at 2%. In addition, the “% FVIIa” value in the experiment with human Tissue Factor (TF) [3] was determined as 2%. Also, the “% FVIIa” value with human Tissue Factor (TF) [5] was 2%. Also, in the experiment with human Tissue Factor (TF) [6], the “% IL8 at 2.56 nM antibody” value came to 52%, the “% IL8 at 6.4 nM antibody” value was found to be 6%, the “% IL8 at 16 nM antibody” value came to 2% and the “% IL8 at 40 nM antibody” value turned out to be 2%. Further, in the experiment with human Tissue Factor (TF) [6], the “% IL8 at 100 nM antibody” value came to 3%. Moreover, in the experiment with human Tissue Factor (TF) [7], the “% GM-CSF at 2.56 nM antibody” value worked out at 42%, the “% GM-CSF at 6.4 nM antibody” value is 8%, the “% GM-CSF at 16 nM antibody” value came out at 5% and the “% GM-CSF at 40 nM antibody” value worked out at 5%. In addition, the “% GM-CSF at 100 nM antibody” value with human Tissue Factor (TF) [7] is 7%.
